Patent publication US20170298096A1 (CANIMGUIDE THERAPEUTICS, published 2017)
No end group written: not given here.

Target: T1, His-tagged P3028 (human, also: His-tag, terminus and sequence not given here)
T1 construct: in solution at 0.5 ug/mL over the peptide cards; found with anti-His-tag antibody and rabbit anti-mouse peroxidase (rampo); also called PGE73; not shown: His-tag
T1 peptide: VFDEFKPLVEEPQNLIK
Test: PEPSCAN chip ELISA, His-P3028 in solution;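 also: score is the raw OD at 405 nm from peroxidase colour with ABTS, imaged by CCD camera before and after staining, with wells showing air bubbles set to zero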

In order of falling “RAMPO Score” value:
1. KKLDTFFQKLSLFTER [SEQ ID NO 513]  271 rampo score
2. KKLDTFFVKLSLFYER [SEQ ID NO 514]  270 rampo score
3. KKLGTFFVKLSLFTER [SEQ ID NO 515]  264 rampo score
4. KKLDTFFVKLSLFKER [SEQ ID NO 517]  259 rampo score
5. KKLDTFFVNLSLFTER [SEQ ID NO 518]  256 rampo score
6. KKLDTFFCKLSLFTER [SEQ ID NO 519]  254 rampo score
7. KKLDTFFVKLSLFTEV [SEQ ID NO 521]  254 rampo score
8. KKLDTFFVKLSLFCER [SEQ ID NO 520]  254 rampo score
9. KKLDTFFVKLFLFTER [SEQ ID NO 522]  250 rampo score
10. KKLDTFFVVLSLFTER [SEQ ID NO 523]  248 rampo score
11. KKLDTFFVKLSLFTMR [SEQ ID NO 524]  247 rampo score
12. KKLDTFFVKLSLFTLR [SEQ ID NO 525]  246 rampo score
13. KKLDTFFVWLSLFTER [SEQ ID NO 526]  245 rampo score
14. KKLDTFFVELSLFTER [SEQ ID NO 527]  240 rampo score
15. KKLDTFFVKLSLFTEH [SEQ ID NO 528]  239 rampo score
16. KKLDTFFVKLSLFTEM [SEQ ID NO 529]  238 rampo score
17. KKLDKFFVKLSLFTER [SEQ ID NO 530]  237 rampo score
18. KKLDTFFVKLSLFTRR [SEQ ID NO 531]  237 rampo score
19. KKLDTFFVKLELFTER [SEQ ID NO 532]  234 rampo score

Target: T2, His-tagged P3028 (human, not fully specified)
T2 construct: the tag is put first after 'PGE73=His-tag-P3028'; also called PGE73; not shown: His-tag
T2 peptide: {His‑tag}-VFDEFKPLVEEPQNLIK
Test: chip ELISA

In order of falling ELISA signal:
1. KKLDTAFVKLSLFTER [P28R F6A]  575
2. KKLDTVFVKLSLFTER [P28R F6V]  547
3. KKLATFFVKLSLFTER [P28R D4A]  494
4. KKLDTTFVKLSLFTER [P28R F6T]  481
5. KKLDTMFVKLSLFTER [P28R F6M]  467
6. KKLDTIFVKLSLFTER [P28R F6I]  466
7. KKLDTNFVKLSLFTER [P28R F6N]  446
8. KKLWTFFVKLSLFTER [P28R D4W]  443
9. KKLDTSFVKLSLFTER [P28R F6S]  432
10. KKLITFFVKLSLFTER [P28R D4I]  430
11. KKLDTFAVKLSLFTER [P28R F7A]  426
12. KKLVTFFVKLSLFTER [P28R D4V]  424
13. KKLYTFFVKLSLFTER [P28R D4Y]  422
14. KKLETFFVKLSLFTER [P28R D4E]  417
15. KKLDTQFVKLSLFTER [P28R F6Q]  410
16. KKLDTLFVKLSLFTER [P28R F6L]  408
17. KKLTTFFVKLSLFTER [P28R D4T]  405
18. KKLDTFFVKLSLFTDR [P28R E15D]  404
19. KKLMTFFVKLSLFTER [P28R D4M]  384
20. KKLDTFEVKLSLFTER [P28R F7E]  381
21. KKLFTFFVKLSLFTER [P28R D4F]  380
22. KKLDTYFVKLSLFTER [P28R F6Y]  364
23. KKLDTWFVKLSLFTER [P28R F6W]  348
24. KKLQTFFVKLSLFTER [P28R D4Q]  345
25. KKLSTFFVKLSLFTER [P28R D4S]  344
26. KKLDTFFVKLSLFTQR [P28R E15Q]  344
27. KKLDTFFVKLSLFTYR [P28R E15Y]  340
28. KKLDTHFVKLSLFTER [P28R F6H]  332
29. KKLDTFFVKLSLFTKR [P28R E15K]  324
30. KKLDTFFVKLSLFTHR [P28R E15H]  318
31. KKLHTFFVKLSLFTER [P28R D4H]  317
32. KKLRTFFVKLSLFTER [P28R D4R]  317
33. KKLDTKFVKLSLFTER [P28R F6K]  309
34. KKLDTRFVKLSLFTER [P28R F6R]  309
35. KKLLTFFVKLSLFTER [P28R D4L]  303
36. KKLDTFDVKLSLFTER [P28R F7D]  301
37. KKLNTFFVKLSLFTER [P28R D4N]  296
38. KKLKTFFVKLSLFTER [P28R D4K]  274
39. KKLDTFFVKLSLFTMR [P28R E15M]  247
40. KKLDTFFVKLSLFTLR [P28R E15L]  246
41. KKLDTFFVKLSLFTRR [P28R E15R]  237
42. KKLDTEFVKLSLFTER [P28R F6E]  229
43. KKLDTFFVKLSLFTWR [P28R E15W]  226
44. KKLDTDFVKLSLFTER [P28R F6D]  193
45. KKLDTFFVKLSLFTAR [P28R E15A]  174
46. KKLDTFFVKLSLFTSR [P28R E15S]  165
47. KKLDTFFVKLSLFTIR [P28R E15I]  163
48. KKLDTFFVKLSLFTVR [P28R E15V]  163
49. KKLDTFFVKLSLFTNR [P28R E15N]  161
50. KKLDTFFVKLSLFTTR [P28R E15T]  152
51. KKLDTFFVKLSLFTFR [P28R E15F]  137
